According to the supplement of paper PMC9112550, “Optimization of the antimicrobial peptide Bac7 by deep mutational scanning” (BMC Biology, 2022):

Tested on: Escherichia coli TOP10
Experiment: shrunken log2 fold change of peptide-encoding DNA abundance (4.5 h post-induction vs induction); higher = less antimicrobial activity (less host growth inhibition)
Settings: time post-induction: 4.5 h; library: site-saturation at positions 5, 18, 19, 20
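Further: peptides expressed intracellularly from a pBAD plasmid library in pooled LB shake-flask culture, induced with 0.3% L-arabinose, DNA abundance read by NGS, three biological replicates, DESeq2 with apeglm shrinkage.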

Sequence | shrunken log2 fold change
RRIRARPPRLPRPRPRPNNPPRP | 0.0346
RRIRKRPPRLPRPRPRPDDPPRP | 0.237
RRIRERPPRLPRPRPRPFWPPRP | 0.0458
RRIRGRPPRLPRPRPRPWRRPRP | 0.054
RRIRARPPRLPRPRPRPVVDPRP | 0.399
RRIRNRPPRLPRPRPRPRSFPRP | 0.0523
RRIRARPPRLPRPRPRPTFSPRP | 0.233
RRIRCRPPRLPRPRPRPGHRPRP | -0.0213
RRIRFRPPRLPRPRPRPIQLPRP | -0.336
RRIRARPPRLPRPRPRPGYYPRP | -0.254
RRIRNRPPRLPRPRPRPDNDPRP | -0.579
RRIRWRPPRLPRPRPRPLQNPRP | -0.11
RRIRNRPPRLPRPRPRPITSPRP | -0.282
RRIRFRPPRLPRPRPRPSELPRP | -0.0817
RRIRVRPPRLPRPRPRPPRLPRP | 0.294
RRIRLRPPRLPRPRPRPTTLPRP | 0.0342
RRIRFRPPRLPRPRPRPHNHPRP | -0.835
RRIRERPPRLPRPRPRPTGGPRP | 0.342
RRIRGRPPRLPRPRPRPSMIPRP | 0.267
RRIRLRPPRLPRPRPRPVLYPRP | -0.239
RRIRQRPPRLPRPRPRPYRNPRP | -0.0521
RRIRGRPPRLPRPRPRPRPHPRP | 0.51

Sequence | shrunken log2 fold change
RRIRVRPPRLPRPRPRPVWQPRP | 0.148
RRIRCRPPRLPRPRPRPNWEPRP | 0.0349
RRIRARPPRLPRPRPRPFTIPRP | -0.142
RRIRNRPPRLPRPRPRPIVQPRP | -0.236
RRIRHRPPRLPRPRPRPGYLPRP | -0.243
RRIRLRPPRLPRPRPRPWHCPRP | -0.0686
RRIRGRPPRLPRPRPRPCQHPRP | -0.153
RRIRARPPRLPRPRPRPLIAPRP | 0.504
RRIRHRPPRLPRPRPRPALMPRP | -0.0655
RRIRRRPPRLPRPRPRPSDGPRP | 0.0219
RRIRFRPPRLPRPRPRPNFIPRP | -0.308
RRIRARPPRLPRPRPRPWTKPRP | 0.167
RRIRDRPPRLPRPRPRPTFPPRP | 0.0873
RRIRTRPPRLPRPRPRPVDFPRP | 0.231
RRIRRRPPRLPRPRPRPSWPPRP | 0.0963
RRIRHRPPRLPRPRPRPNTKPRP | -0.0741
RRIRCRPPRLPRPRPRPLPDPRP | 0.33
RRIRERPPRLPRPRPRPGNCPRP | 0.13
RRIRMRPPRLPRPRPRPTNWPRP | 0.474
RRIRMRPPRLPRPRPRPRYLPRP | -0.0395
RRIRCRPPRLPRPRPRPHKRPRP | 0.0953
RRIRIRPPRLPRPRPRPKMKPRP | -0.457

Sequence | shrunken log2 fold change
RRIRGRPPRLPRPRPRPGQQPRP | 0.0088
RRIRKRPPRLPRPRPRPTYQPRP | -0.191
RRIRARPPRLPRPRPRPNAVPRP | 0.0101
RRIRYRPPRLPRPRPRPPAQPRP | 0.23
RRIRSRPPRLPRPRPRPWLTPRP | -0.0675
RRIRYRPPRLPRPRPRPMRMPRP | 0.126
RRIRMRPPRLPRPRPRPVEEPRP | 0.292
RRIRPRPPRLPRPRPRPYGCPRP | -0.0896
RRIRRRPPRLPRPRPRPWSDPRP | -0.107
RRIRWRPPRLPRPRPRPMQFPRP | 0.104
RRIRGRPPRLPRPRPRPWILPRP | 0.112
RRIRIRPPRLPRPRPRPWHNPRP | -0.169
RRIRNRPPRLPRPRPRPIRVPRP | -0.0394
RRIRGRPPRLPRPRPRPIEQPRP | 0.109
RRIRHRPPRLPRPRPRPSMTPRP | 0.0628
RRIRCRPPRLPRPRPRPQDVPRP | -0.176
RRIRRRPPRLPRPRPRPIIRPRP | 0.0674
RRIRKRPPRLPRPRPRPEQHPRP | 0.586
RRIRQRPPRLPRPRPRPGSHPRP | -0.108
RRIRCRPPRLPRPRPRPNNGPRP | -0.451
RRIRTRPPRLPRPRPRPGGHPRP | 0.0329
RRIRHRPPRLPRPRPRPDPPPRP | 0.232

Sequence | shrunken log2 fold change
RRIRVRPPRLPRPRPRPQGHPRP | -0.177
RRIRCRPPRLPRPRPRPPYNPRP | -0.618
RRIRDRPPRLPRPRPRPPNIPRP | -0.0733
RRIRGRPPRLPRPRPRPWWQPRP | 0.644
RRIRKRPPRLPRPRPRPQQPPRP | -0.041
RRIRARPPRLPRPRPRPQDFPRP | -0.0122
RRIRKRPPRLPRPRPRPWRTPRP | 0.379
RRIRTRPPRLPRPRPRPAVMPRP | 0.06
RRIRERPPRLPRPRPRPHSGPRP | -0.365
RRIRDRPPRLPRPRPRPRSYPRP | -0.0236
RRIRNRPPRLPRPRPRPFLLPRP | -0.295
RRIRVRPPRLPRPRPRPFTSPRP | -0.0104
RRIRYRPPRLPRPRPRPLYHPRP | -1.11
RRIRHRPPRLPRPRPRPCTYPRP | -0.634
RRIRTRPPRLPRPRPRPHRQPRP | -0.256
RRIRNRPPRLPRPRPRPPEIPRP | -0.169
RRIRERPPRLPRPRPRPHSDPRP | -0.0192
RRIRNRPPRLPRPRPRPFKKPRP | -0.263
RRIRGRPPRLPRPRPRPHLEPRP | 0.381
RRIRGRPPRLPRPRPRPATMPRP | 0.44
RRIRNRPPRLPRPRPRPPGYPRP | 0.39
RRIRCRPPRLPRPRPRPKEAPRP | 0.085

Sequence | shrunken log2 fold change
RRIRLRPPRLPRPRPRPFNPPRP | -0.349
RRIRTRPPRLPRPRPRPSWDPRP | -0.262
RRIRIRPPRLPRPRPRPAAQPRP | 0.14
RRIRRRPPRLPRPRPRPFPEPRP | 0.212
RRIRTRPPRLPRPRPRPRQWPRP | -0.054
RRIRRRPPRLPRPRPRPNRHPRP | -0.00811
RRIRERPPRLPRPRPRPLPMPRP | 0.187
RRIRQRPPRLPRPRPRPIHRPRP | -0.0654
RRIRCRPPRLPRPRPRPSWAPRP | 0.18
RRIRTRPPRLPRPRPRPEWNPRP | -0.05
RRIRIRPPRLPRPRPRPTVPPRP | 0.185
RRIRDRPPRLPRPRPRPIMQPRP | -0.0521
RRIRDRPPRLPRPRPRPPYWPRP | 0.246
RRIRQRPPRLPRPRPRPQHIPRP | -0.357
RRIRSRPPRLPRPRPRPSLIPRP | -0.0623
RRIRFRPPRLPRPRPRPNWAPRP | 0.00252
RRIRQRPPRLPRPRPRPYWFPRP | 0.00499
RRIRIRPPRLPRPRPRPDAVPRP | 0.0396
RRIRGRPPRLPRPRPRPAAHPRP | 0.807
RRIRCRPPRLPRPRPRPCQGPRP | -0.0713
RRIRLRPPRLPRPRPRPPRLPRP | 0.46
